Measured values from patent publication US20260098059A1 (ENDOMET BIOSCIENCES, published 2026).
Several values for one entry are separate records, joined by “and”; a condition that tells them apart may be missing. Equal entries are not always repeated. Each block holds one binder with its values, some of them ahead of it. Bridges are numbered along the chain shown (N, C = ends). Where no end group is shown, it is not given here. [ ]: non-standard residue; d: D form. The star is where a group is joined. Palmitoyl = CCCCCCCCCCCCCCCC(=O)*; Chg = N[C@H](C(=O)O)C1CCCCC1; NMeA = CN[C@@H](C)C(=O)O

Target: T1, β-catenin (UniProt P35222 134-665, limits assumed, biotinylated in the SPR and plate assays)
T1 sequence (looked up): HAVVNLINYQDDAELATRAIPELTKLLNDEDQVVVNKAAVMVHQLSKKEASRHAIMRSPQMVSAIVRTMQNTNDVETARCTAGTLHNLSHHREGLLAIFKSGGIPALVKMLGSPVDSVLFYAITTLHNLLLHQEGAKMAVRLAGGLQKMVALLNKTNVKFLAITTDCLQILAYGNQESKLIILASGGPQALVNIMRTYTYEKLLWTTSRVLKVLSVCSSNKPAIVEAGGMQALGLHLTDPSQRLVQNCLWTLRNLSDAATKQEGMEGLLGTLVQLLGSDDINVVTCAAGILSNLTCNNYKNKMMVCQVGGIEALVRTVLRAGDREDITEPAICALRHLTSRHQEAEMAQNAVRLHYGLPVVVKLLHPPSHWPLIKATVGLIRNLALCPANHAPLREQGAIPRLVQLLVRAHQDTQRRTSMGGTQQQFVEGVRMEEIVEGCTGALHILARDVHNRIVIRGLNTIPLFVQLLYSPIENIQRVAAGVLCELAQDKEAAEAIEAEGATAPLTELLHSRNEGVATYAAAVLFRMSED
Experiment: cell-based or functional assay

- Wnt Reporter EC50: ≤ 7.5 µM
Binder: H-MSRMWFLICFWG-OH [SEQ ID NO: 46]

- Wnt Reporter EC50: > 7.5 µM and ≤ 15 µM
Binder: Ac-W[NMeA]QKILDEH[Chg]EAVWK (lactam 11-15, 4-8 (inferred)) [SEQ ID NO: 476]

- Wnt Reporter EC50: ≤ 7.5 µM
Binder: Ac-PQKILDEH[Chg]QRVMK-NH2 (lactam 3-7) [SEQ ID NO: 488]

- Wnt Reporter EC50: ≤ 7.5 µM
Binder: H-MWFLISFWRG-OH [SEQ ID NO: 49]

- Wnt Reporter EC50: ≤ 7.5 µM
B1: SEQ ID NO: 456 (peptide)
peptide: WXQKILNDHGQRVW
HELM: PEPTIDE1{[CCCCCCCCCCCC(=O)[*:2]].W.[Aib].Q.K.I.L.N.D.H.[O=C([C@@H](N[*:1])C1CCCCC1)[*:2]].Q.R.V.W.[am]}$PEPTIDE1,PEPTIDE1,5:R3-9:R3$$$V2.0
SMILES: CCCCCCCCCCCC(=O)N[C@@H](Cc1c[nH]c2ccccc12)C(=O)NC(C)(C)C(=O)N[C@@H](CCC(N)=O)C(=O)N[C@H]1CCCCNC(=O)C[C@@H](C(=O)N[C@@H](Cc2c[nH]cn2)C(=O)N[C@H](C(=O)N[C@@H](CCC(N)=O)C(=O)N[C@@H](CCCNC(=N)N)C(=O)N[C@H](C(=O)N[C@@H](Cc2c[nH]c3ccccc23)C(N)=O)C(C)C)C2CCCCC2)NC(=O)[C@H](CC(N)=O)NC(=O)[C@H](CC(C)C)NC(=O)[C@H]([C@@H](C)CC)NC1=O

- Wnt Reporter EC50: ≤ 7.5 µM
B2: SEQ ID NO: 477 (peptide)
peptide: W[NMeA]QKILDEH[Chg]EAVWK
modifications: lactam 11-15, 4-8 (inferred); not fully specified (N-terminus); printed as H23C11C(O)-NH-W-NMeA-QK*ILDE*H-Chg-E*AVWK*

- Wnt Reporter EC50: > 30 µM
Binder: Ac-PQKILDEHVQRVMK-NH2 (bridge 3-7; also: K3* and E7* marked (linkage not given here)) [SEQ ID NO: 485]

- Wnt Reporter EC50: ≤ 7.5 µM
Binder: Palmitoyl-PQKILDEHVQRVMK-NH2 (bridge 3-7; also: K3* and E7* marked (linkage not given here)) [SEQ ID NO: 487]

- Wnt Reporter EC50: > 15 µM and ≤ 22.5 µM
B3: SEQ ID NO: 489 (peptide)
peptide: PQKILDEH[Chg]QRVMK-NH2
modifications: lactam 3-7; not fully specified (N-terminus); printed as H23C11C(O)-PQK*ILDE*H-Chg-QRVMK-NH2

- Wnt Reporter EC50: > 15 µM and ≤ 22.5 µM
Binder: H-MSRMWFLISFWTG-OH [SEQ ID NO: 44]

- Wnt Reporter EC50: ≤ 7.5 µM
Binder: Palmitoyl-PQKILDEH[Chg]QRVMK-NH2 (bridge 3-7; also: K3* and E7* marked (linkage not given here)) [SEQ ID NO: 490]

- Wnt Reporter EC50: > 30 µM
B4: SEQ ID NO: 486 (peptide)
peptide: PQKILDEHVQRVMK-NH2
modifications: bridge 3-7; not fully specified (N-terminus); printed as H23C11C(O)-PQK*ILDE*HVQRVMK-NH2; also: K3* and E7* marked (linkage not given here)

- Wnt Reporter EC50: > 7.5 µM and ≤ 15 µM
Binder: H-MSRMWILISFWG-OH [SEQ ID NO: 51]
